In US20060062793A1 (published 2006):
One block for each binder: values may come before it.

Assays:
[1] = biological target: T1, prostate specific membrane antigen (PSMA) on LNCaP cells (human, UniProt Q04609 1-750); assay: not described
T1 construct: whole, on cells; Used for intact LNCaP cells, LNCaP membrane preparations and LNCaP tumour or prostate tissue sections; also called human PSMA; LNCap membrane preparation

[2] = biological target: T1, prostate specific membrane antigen …; assay: ELISA on plates coated with LNCaP membrane preparation
[3] = biological target: T1, prostate specific membrane antigen …; assay: ELISA on LNCaP membrane preparation, purified antibody, reference J415 chimeric antibody

T1 sequence (Q04609 whole entry): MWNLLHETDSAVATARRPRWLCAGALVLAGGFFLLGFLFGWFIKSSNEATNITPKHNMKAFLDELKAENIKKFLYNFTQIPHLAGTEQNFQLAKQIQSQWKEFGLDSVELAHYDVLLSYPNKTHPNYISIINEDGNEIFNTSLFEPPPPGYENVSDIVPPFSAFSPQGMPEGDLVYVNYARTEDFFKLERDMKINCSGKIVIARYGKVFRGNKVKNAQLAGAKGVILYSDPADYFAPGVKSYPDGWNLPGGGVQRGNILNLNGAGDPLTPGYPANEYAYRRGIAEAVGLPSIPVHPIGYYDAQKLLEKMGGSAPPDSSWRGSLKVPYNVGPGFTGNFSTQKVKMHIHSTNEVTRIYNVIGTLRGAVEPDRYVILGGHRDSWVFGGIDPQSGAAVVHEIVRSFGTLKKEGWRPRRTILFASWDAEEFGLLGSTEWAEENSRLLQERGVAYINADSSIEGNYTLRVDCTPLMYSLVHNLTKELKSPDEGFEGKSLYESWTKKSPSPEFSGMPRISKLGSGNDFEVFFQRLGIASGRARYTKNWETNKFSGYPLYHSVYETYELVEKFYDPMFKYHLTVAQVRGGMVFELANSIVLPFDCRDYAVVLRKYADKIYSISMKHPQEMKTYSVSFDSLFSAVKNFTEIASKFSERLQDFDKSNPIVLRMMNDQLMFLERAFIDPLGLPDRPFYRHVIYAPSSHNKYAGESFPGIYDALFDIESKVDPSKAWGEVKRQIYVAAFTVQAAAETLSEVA

- binding result [1]: binds
B1: murine E99 monoclonal antibody (antibody, mouse IgG3, V domains shown)
VH: QVQLKESGPGLVASSQSLSITCTVSGFSLTAYGINWVRQPPGKGLEWLGVIWPDGNTDYNSTLKSRLNIFKDNSKNQVFLKMSSFQTDDTARYFCARDSYGNFKRGWFDFWGQGTTLTVSS
VL: NIVMTQSQKFMSTSPGDRVRVTCKASQNVGSDVAWYQAKPGQSPRILIYSTSYRYSGVPDRFTAYGSGTDFTLTITNVQSEDLTEYFCQQYNSYPLTFGAGTKLELK

- binding result [1]: binds
B2: murine J533 monoclonal antibody (antibody, mouse IgG1, V domains shown)
VH: EVQLQQSGPELVKPGASVKMSCKASGYTFTGYVMHWVKQKPGQVLEWIGYINPYNDVTRYNGKFKGKATLTSDKYSSTAYMELSGLTSEDSAVYYCARGENWYYFDSWGRGATLTVSS
VL: DIVLTQSPASLAVSLGQRATISCRASESIDSYDNTFMHWYQQKPGQPPNLLIFRASILESGIPARFSGSGSGTDFTLTIYPVEADDVATYYCHQSIEDPYTFGGGTKLEIK
notes: Mouse IgG1 kappa, hybridoma ATCC HB-12127

- binding result [2]: binds
B3: deimmunized J415 antibody, heavy chain version 4 with light chain version 5 (antibody, human IgG1, V domains shown)
VH: EVKLEESGGGLVQPGGSMKISCVASGFTFSNYWMNWVRQSPEKGLEWVAEIRSQSNNFATHYAESVKGRVIISRDDSKSSVYLQMNSLRAEDTAVYYCTRRWNNFWGQGTTVTVSS
VL: NIVMTQFPKSMSASAGERMTLTCKASENVGTYVSWYQQKPTQSPKMLIYGASNRFTGVPDRFSGSGSGTDFILTISSVQAEDLVDYYCGQSYTFPYTFGGGTKLEMK
notes: also called DIVH4/DIVK5; J415DIVH4/J415DIVK5

- fold less binding than the chimeric antibody [3]: 2 fold
B4: deimmunized J415 antibody, heavy chain version 2 with light chain version 5 (antibody, human IgG1, V domains shown)
VH: EVKLEESGGGLVQPGGSMKISCVASGFTFSNYWMNWVRQTPEKGLEWVALIRSQSNNFATHYAESVKGRVIISRDDSKSSVYLQMNSLRAEDTAVYYCTRRWNNFWGQGTTVTVSS
VL: NIVMTQFPKSMSASAGERMTLTCKASENVGTYVSWYQQKPTQSPKMLIYGASNRFTGVPDRFSGSGSGTDFILTISSVQAEDLVDYYCGQSYTFPYTFGGGTKLEMK
notes: also called DIVH2/DIVK5; J415DIVH2 with DIVK5

- binding result [1]: binds
B5: murine J415 monoclonal antibody (antibody, mouse IgG1, V domains shown)
VH: EVKLEESGGGLVQPGGSMKLSCVASGFTFSNYWMNWVRQSPEKGLEWVAEIRSQSNNFATHYAESVKGRVIISRDDSKSSVYLQMNNLRAEDTGIYYCTRRWNNFWGQGTTLTVSS
VL: NIVMTQFPKSMSISVGERVTLTCKASENVGTYVSWYQQKPEQSPKMLIYGASNRFTGVPDRFTGSGSATDFILTISSVQTEDLVDYYCGQSYTFPYTFGGGTKLEMK
notes: Mouse IgG1 kappa, hybridoma ATCC HB-12109

- binding result [2]: binds
B6: J415 chimeric antibody (antibody, V domains shown)
VH: EVKLEESGGGLVQPGGSMKLSCVASGFTFSNYWMNWVRQSPEKGLEWVAEIRSQSNNFATHYAESVKGRVIISRDDSKSSVYLQMNNLRAEDTGIYYCTRRWNNFWGQGTTLTVSS
VL: NIVMTQFPKSMSISVGERVTLTCKASENVGTYVSWYQQKPEQSPKMLIYGASNRFTGVPDRFTGSGSATDFILTISSVQTEDLVDYYCGQSYTFPYTFGGGTKLEMK
notes: also called the chimeric

- fold less binding than the chimeric antibody [3]: 2 fold
B7: deimmunized J415 antibody, heavy chain version 1 with light chain version 5 (antibody, human IgG1, V domains shown)
VH: EVKLEESGGGLVQPGGSMKISCKASGFTFSNYWMNWVRQTPEKGLEWVALIRSQSNNFATHYAESVKGRVIISRDDSKSSVYLQMNSLRAEDTAVYYCTRRWNNFWGQGTTVTVSS
VL: NIVMTQFPKSMSASAGERMTLTCKASENVGTYVSWYQQKPTQSPKMLIYGASNRFTGVPDRFSGSGSGTDFILTISSVQAEDLVDYYCGQSYTFPYTFGGGTKLEMK
notes: also called DIVH1/DIVK5; J415DIVH1 with DIVK5
